Measured values published in patent publication US20200264182A1, “METHOD FOR DETECTING PROSTATE CANCER” (J-OIL MILLS, INC., priority 2017, published 2020).

Experiments:
[1] = FAC binding constant (Table 5 entry); details: Table 5: sugar chain having no fucose; at 25° C.
Protocol: Details of the FAC method are described in Patent Document 2 filed by some of the present applicants, for example.
Binding constants (at 25° C.) of PhoSL, SRL, NSL and LSL belonging to the fucose α1→6 specific lectin for various sugar chains are shown in Tables 2 to 5.

serum fucosylated PSA = assay: Sandwich ELISA, anti-PSA antibody and biotin-labeled lectin; format: binding, human
Protocol: The anti-PSA antibody from which sugar chains had been removed was diluted to 5 μg/mL with PBS. 25 μL of this diluted solution was added to each well of an ELISA plate and allowed to stand at 37° C. for 12 hours, and then the additive solution was discarded.
150 μL of PBS containing 0.05% Tween 20 (product name: polyoxyethylene sorbitan monolaurate, from Nacalai Tesque, Inc.) was added to each well, and then the additive solution was discarded. This manipulation was repeated three times in total.
25 μL of 1% BSA/PBS was added to each well and allowed to stand at 37° C. for 1 hour, and then the additive solution was discarded.
150 μL of PBS containing 0.05% Tween 20 was added to each well, and then the additive solution was discarded. This manipulation was repeated three times in total.
To graph a calibration curve, 25 μL of the fucosylated PSA reference standard diluted with 1% BSA/PBS to a concentration of 0 to 200 ng/mL was added to each well and allowed to stand at room temperature for 1 hour, and then the additive solution was discarded. In addition, to detect the fucosylated PSA in the serum of the subject by the lectin, 25 μL of serum of “Healthy 1” and “Prostate cancer 4” 2-fold diluted with PBS was added to each well and allowed to stand at room temperature for 1 hour, and then the additive solution was discarded.
In Reference Example 1, 25 μL of a biotin-labeled PhoSL diluted to 0.1 μg/mL with 0.1% BSA/PBS (pH 7.4) was added to each well and allowed to stand at 4° C. for 30 minutes, and then the additive solution was discarded. In Example 1, 25 μL of a biotin-labeled PhoSL diluted to 0.1 μg/mL with 0.1% BSA/10-fold diluted PBS+glycine-NaOH (pH 9.6) was added to each well and allowed to stand at 4° C. for 30 minutes, and then the additive solution was discarded.
25 μL of a horseradish peroxidase (HRP)-labeled streptavidin solution (from Vector Laboratories, Inc., concentration: 0.4 μg/mL, in 1% BSA/PBS) was added to each well and allowed to stand at room temperature for 30 minutes, and then the additive solution was discarded.
25 μL of chromogenic substrate for HRP (product name: TMB, from Kirkegaard & Perry Laboratories, Inc.) was added to each well and allowed to stand at room temperature for 10 minutes.
25 μL of 1M phosphoric acid was added to terminate the reaction.
Absorbance (Ab) at 450 nm and 630 nm was measured using a plate reader, and a measurement (Ab450-630) was obtained.
A calibration curve was graphed by plotting signals (reaction values, Ab450-630) of the fucosylated PSA reference standard with the biotin-labeled PhoSL. A Signal (Ab450-630) of the biotin-labeled PhoSL corresponding to the fucosylated PSA concentration of 10 ng/mL was defined as 10 U/mL.
The signals of biotin-labeled PhoSL (Ab450-630) for the serum fucosylated PSA in the subject samples A were assigned to the calibration curve to calculate reaction values (unit: U/mL).
The PhoSL reaction values for the subject samples A were measured by the same operation as in Example 1. From the PhoSL reaction values, an average value and a median value were determined. Furthermore, a standard cutoff value (89.7 U/mL) was used to determine a detection rate (positive rate) of the prostate cancer patients, and a false detection rate (false positive rate) of the healthy persons.
Comparative Example 2 in Table 9 indicates results of detecting the serum fucosylated PSA using AAL (AAL reaction values) in the subject samples A. Specifically, in Reference Example 1, AAL reaction values were measured in the same manner as in Reference Example 1 except that the biotin-labeled PhoSL was replaced with a biotin-labeled AAL. A standard cut-off value for the AAL reaction values was 894.8 U/mL. As in Example 2, an average value, a median value, a positive rate and a false positive rate were determined from the AAL reaction values.

[2] = subject samples A, 7 healthy persons, pH 7.4
[3] = subject samples A, 9 patients, pH 7.4

B1: AAL: Aleuria aurantia lectin, has affinity for fucose α1→6 but is not specific; from J-OIL MILLS, Inc. (protein)
chain: PTEFLYTSKIAAISWAATGGRQQRVYFQDLNGKIREAQRGGDNPWTGGSSQNVIGEAKLFSPLAAVTWKSAQGIQIRVYCVNKDNILSEFVYDGSKWITGQLGSVGVKVGSNSKLAALQWGGSESAPPNIRVYYQKSNGSGSSIHEYVWSGKWTAGASFGSTVPGTGIGATAIGPGRLRIYYQATDNKIREHCWDSNSWYVGGFSASASAGVSIAAISWGSTPNIRVYWQKGREELYEAAYGGSWNTPGQIKDASRPTPSLPDTFIAANSSGNIDISVFFQASGVSLQQWQWISGKGWSIGAVVPTGTPAGW
Binding constant for sugar chain No. 728 [1]: <1000 M⁻¹ | lectin reaction value B of Healthy 1 (serum fucosylated PSA; serum of Healthy 1, pH in lectin reaction 7.4): 1099.6 U/mL | lectin reaction value of Healthy 2 (serum fucosylated PSA; serum of Healthy 2, pH in lectin reaction 7.4): 854.6 U/mL | lectin reaction value of Healthy 3 (serum fucosylated PSA; serum of Healthy 3, pH in lectin reaction 7.4): 1062.7 U/mL | lectin reaction value of Healthy 4 (serum fucosylated PSA; serum of Healthy 4, pH in lectin reaction 7.4): 115.0 U/mL | lectin reaction value of Healthy 5 (serum fucosylated PSA; serum of Healthy 5, pH in lectin reaction 7.4): 32.3 U/mL | lectin reaction value of Healthy 6 (serum fucosylated PSA; serum of Healthy 6, pH in lectin reaction 7.4): 1193.1 U/mL | lectin reaction value of Healthy 7 (serum fucosylated PSA; serum of Healthy 7, pH in lectin reaction 7.4): 1028.8 U/mL | lectin reaction value of Prostate cancer 1 (serum fucosylated PSA; serum of Prostate cancer 1, GS 4 (2 + 2), pH in lectin reaction 7.4): 831.2 U/mL | lectin reaction value of Prostate cancer 2 (serum fucosylated PSA; serum of Prostate cancer 2, GS 5 (2 + 3), pH in lectin reaction 7.4): 1032.3 U/mL | lectin reaction value of Prostate cancer 3 (serum fucosylated PSA; serum of Prostate cancer 3, GS 6 (3 + 3), pH in lectin reaction 7.4): 1152.7 U/mL | lectin reaction value A of Prostate cancer 4 (serum fucosylated PSA; serum of Prostate cancer 4, GS 6 (3 + 3), pH in lectin reaction 7.4): 926.5 U/mL | lectin reaction value of Prostate cancer 5 (serum fucosylated PSA; serum of Prostate cancer 5, GS 7 (3 + 4), pH in lectin reaction 7.4): 1025.0 U/mL | lectin reaction value of Prostate cancer 6 (serum fucosylated PSA; serum of Prostate cancer 6, GS 7 (3 + 4), pH in lectin reaction 7.4): 961.5 U/mL | lectin reaction value of Prostate cancer 7 (serum fucosylated PSA; serum of Prostate cancer 7, GS 8 (3 + 5), pH in lectin reaction 7.4): 1211.9 U/mL | lectin reaction value of Prostate cancer 8 (serum fucosylated PSA; serum of Prostate cancer 8, GS 8 (4 + 4), pH in lectin reaction 7.4): 1010.0 U/mL | lectin reaction value of Prostate cancer 9 (serum fucosylated PSA; serum of Prostate cancer 9, GS 8 (4 + 4), pH in lectin reaction 7.4): 988.1 U/mL | reaction value, Healthy person group, Average value (serum fucosylated PSA; [2]): 769.4 U/mL | reaction value, Healthy person group, Median value (serum fucosylated PSA; [2]): 1028.8 U/mL | reaction value, Prostate cancer patient group, Average value (serum fucosylated PSA; [3]): 1015.5 U/mL | reaction value, Prostate cancer patient group, Median value (serum fucosylated PSA; [3]): 1010.0 U/mL | reaction value, GS6, Mean value (serum fucosylated PSA; subject samples A, n 2, pH 7.4): 1039.6 U/mL | reaction value, GS6, Median value (serum fucosylated PSA; subject samples A, n 2, pH 7.4): 1039.6 U/mL | reaction value, GS7, Mean value (serum fucosylated PSA; subject samples A, n 2, pH 7.4): 993.3 U/mL | reaction value, GS7, Median value (serum fucosylated PSA; subject samples A, n 2, pH 7.4): 993.3 U/mL | reaction value, Negative (GS5 or less), Mean value (serum fucosylated PSA; subject samples A, n 2, pH 7.4): 931.8 U/mL | reaction value, Negative (GS5 or less), Median value (serum fucosylated PSA; subject samples A, n 2, pH 7.4): 931.8 U/mL | reaction value, GS8 or more, Mean value (serum fucosylated PSA; subject samples A, n 3, pH 7.4): 1070.0 U/mL | reaction value, GS8 or more, Median value (serum fucosylated PSA; subject samples A, n 3, pH 7.4): 1010.0 U/mL
